From US9939430B2, “Platelet analysis” (Dublin City University, priority 2008, dated 2018)
Entries after “also recorded” stand apart in the source; their conditions may differ.

How the values were obtained:
[1] = target: T1, GP Ilb/IIIa receptor (Homo sapiens, UniProt P05106+P08514); experiment: Platelet adhesion on fibrinogen patterned substrate in PCI patients before and after Reopro administration; format: in vivo; settings: for platelet adhesion after administration: 0.25 mg/kg dose during PCI
T1 construct: blood samples from 10 cardiovascular patients undergoing Percutaneous Coronary Interventions (PCI); endogenous in cells; host or cells: platelets in blood of PCI patients
Experimental: The above in-vitro results were validated in a small-scale, targeted clinical study conducted at the Clinical Research Centre in Beaumont Hospital. The same protein patterned substrate was tested with blood samples from 10 cardiovascular patients undergoing Percutaneous Coronary Interventions (PCI). Three patients who received a 0.25 mg/kg dose of Reopro® during the procedure had their platelet adhesion measured using the method of the present invention before Reopro® administration (image i of FIG. 10), 10 minutes after Reopro® administration (image ii of FIG. 10), and between 20 and 24 hours after Reopro® administration (image iii of FIG. 10).
Multiple fluorescent dots on the grid indicates presence of adhering platelets (i).

[2] = target: T2, platelet fibrinogen receptor αIIbβ3 (GPIIb/IIIa) (Homo sapiens, UniProt P05106+P08514); experiment: Platelet adhesion to fibrinogen patterned substrate, whole blood preincubated with abciximab in vitro; format: cell-based
T2 construct: incubation of whole blood with different doses of abciximab (Reopro®); endogenous in cells; host or cells: platelets in donor whole blood
Excerpt: The single platelet counting method enables high resolution and reproducible platelet adhesion and function assays in contrast with fluorescence measurements of platelet adhesion. The drug abciximab inhibits platelet adhesion to fibrinogen. […] We compare this platelet adhesion quantification method with a classical method which consists on the measure of the fluorescence intensity originated by the platelets adhering to the surface (which have been fluorescently labelled after adhesion took place). […] Subsequently the samples were washed with buffers, fixed and labelled using platelet specific antibodies fluorescently labelled. After the samples were mounted on microscopy glass slides and imaged. (i)-(iii) show single platelet arrays formed on 6 micron fibrinogen dots array; (iv)-(vi) show platelets adhering to 12 micron fibrinogen dots array; (vii)-(ix) show platelets adhering to 24 micron fibrinogen dots array. […] It is more difficult to quantify the number of platelets adhering to the 12 or 24 micron fibrinogen dots. The effect of the drug in platelet adhesion was quantified using two methods, single platelet counting method, and fluorescence method. (B) Graphs showing the fluorescence intensity measured on samples incubated with blood samples preincubated with different doses of abxicimab (x axes units: abciximab concentration (g/mL); y axes units: fluorescence, arbitrary units). (C) Graph showing the percentage of filled (occupied by platelets) dots on 6 microns fibrinogen dots array on samples incubated with blood samples preincubated with different doses of abxicimab (x axes units: abciximab concentration (g/mL); y axes units: percentage of 6 micron fibrinogen dots occupied by platelets).
In parallel flow cytometry is used to quantify the inhibition of fibrinogen-platelet binding resulting from incubation of whole blood with different doses of abciximab (Reopro®). To perform the measurements by flow cytometry, platelets were pre-activated with thrombin-receptor-activating peptide. […]

[3] = system: platelets; experiment: Platelet adhesion from whole blood on protein patterned surfaces (percentage of filled dots); format: cell-based, human; settings: 2 μm dots array, four normal donors
Experimental: For the fabrication of protein patterns, specific platelet adhesive proteins or platelet antibodies were directly patterned on bare glass substrates by microcontact printing (FIG. 1a). After protein patterning the rest of the glass substrate was blocked with bovine serum albumin (BSA) to avoid non specific capture in non selected areas. Characterization of the protein pattern was carried out by immunofluorescence to assure good homogenous coverage of the protein pattern FIG. 14(ii) along all the patterned area. Samples were incubated with 1 mL of citrated or hirudinised whole blood for a maximum of 30 minutes.
The same blood sample exposed to a number of identical substrates gave small deviations; lower than 10%, in the platelet adhesion (FIG. 4b). We have quantified the platelet adhesion from whole blood on fibrinogen, vWF and anti-CD42b surfaces for four different normal donors. […]
The probability that a platelet is captured on a single spot depends on the probability that the platelet touches the protein spot, and on the binding affinity of the platelet for the protein matrix. […] We calculated the mean platelet adhesion on antibody, fibrinogen and vWF patterned surfaces on 2 μm and 6 μm dots arrays. […] A mean platelet adhesion of 45%, 10% and 15% were calculated for the antibody, the fibrinogen and the vWF surfaces, respectively. […]

platelet adhesion after administration ([1]; 20-24 hours after administration) | platelet adhesion after administration (fluorescence images, one subject) ([1]; 21 h after administration) | inhibition of platelet adhesion in CVD patients compared to the diabetic patients ([2]; in vitro, 1.5 μg/ml Reopro, CVD patients on aspirin and clopidogrel vs type 2 diabetes patients on aspirin) | Substance | platelet adhesion after administration ([1]; 10 minutes after administration, listed as Reopro®, 0.25 mg/kg) | platelet adhesion to the fibrinogen substrate after abciximab treatment ([2]; blood preincubated with abciximab (20 μg/mL), 2 and 6 μm dot arrays) | Reopro's effects on platelet adhesion across population groups ([2]; in vitro, 1.5 μg/ml Reopro, normal donors, CVD patients, diabetic patients) | mean platelet adhesion [3] [%]
increasing adhesion | recovery of adhesiveness | increased inhibition | abciximab | low adhesion; also recorded: limited platelet adhesion | do not adhere to the fibrinogen substrate | effects appear greater in CVD patients than in normal or diabetic patients | 
 |  |  | fibrinogen |  |  |  | 10
 |  |  | von Willebrand factor [vWF] |  |  |  | 15
